Assay results: patent publication US20130330342A1 (CENTRE NATIONAL DE LA RECHERCHE SCIENTIFIQUE CNRS, published 2013)

Target: T1, CD8-Stop (UniProt P01732 22-203, limits assumed)
T1 construct: domain: CD8 receptor devoid of cytoplasmic domain; Control expressed in HeLa or 293T cells; also called CD8 protein devoid of cytoplasmic domain; control CD8-Stop protein
Test: co-immunoprecipitation from 293T cells (anti-CD8 IP, anti-c-myc blot)
Description: The direct recognition of Nef by sdAb Nef19 was explored at the cell level by means of coimmuno-precipitation experiments. […] These constructs have been previously described (Janvier et al., 2003a,b; Madrid et al., 2005). The same type of experiment was also carried out on cells coexpressing the sdAb and the CD8 protein devoid of cytoplasmic domain (CD8-Stop) used as a control. 24 h after transfection, the cells were lyzed in a buffer containing 100 mM of (NH₄)₂SO₄, 20 mM of Tris (pH 7.5), 10% of glycerol, 1% of IGEPAL and a cocktail of protease inhibitors (Roche). The cell lyzate (600 μg of total proteins) was incubated for 1 h at 4° C. with 3 μg of the anti-CD8 Ab (32M4, Santa Cruz) and 30 μl of beads coated with protein A-sepharose. The immunoprecipitates were then analyzed by immunoblotting using an anti-CD8 Ab (H160, Santa Cruz) and an anti-c-myc Ab (9E10).

T1 sequence (P01732 22-203 limits assumed): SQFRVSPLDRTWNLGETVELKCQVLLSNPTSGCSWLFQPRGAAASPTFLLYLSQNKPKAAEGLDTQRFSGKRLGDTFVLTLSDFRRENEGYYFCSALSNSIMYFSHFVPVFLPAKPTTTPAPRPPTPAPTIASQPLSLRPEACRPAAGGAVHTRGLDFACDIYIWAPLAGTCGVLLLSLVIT

B1: sdAb Nef19 (VHH)
VHH: EVQLVESGGGLVQPGGSLKLSCAASGSIFRANAMRWYRQAPGKQREWVASVISDDFTDYVDSVRGRFTISKDNAQNTVYLQMNSLKPEDTAVYYCNAQLGGVNYWGQGTQVTVSS
notes: Llama VHH from the immune library; The soluble form carries C-terminal c-myc and 6His tags and is detected with mAb 9E10; also called sdAb Nef19P; sdAb Nef19C
B1: no binding.
